Results on 1 protein are retold here after publication PMC12035558, “Structure of the Saccharolobus solfataricus GINS tetramer” (Acta Crystallographica Section F: Structural Biology …, 2025).

The series concerns the molecule itself. As to the kind of experiment: crystal structure; co-expressed and co-purified SsoGINS tetramer, 11 mg/ml in 20 mM Tris pH 8.3, 100 mM NaCl; hanging drop, 0.18 M triammonium citrate, 20%(w/v) PEG 3350, 291 K; space group P6_(3), 2.3 Å.

B1: Saccharolobus solfataricus GINS51 (natural protein)
chain: MLDELVKKELSEEEITEIKLEEIIKYITLIKKSKTFVSSEIRKEELKFLSELAESLFELRLSKVLEGKVGKGFDEFIFDIFKILKQFYVDLLTGRYIIYNDKIYCIVQKPLIYNDHRVNEGDVLVLPMREALPLIIASYLTPYKIDIEEQL
notes: GINS51 of Saccharolobus solfataricus, gene amplified from genomic DNA (ATCC 35092D-5); Two copies stand in the (GINS23)2(GINS51)2 tetramer; A subdomain (alpha-helical) comes first, B subdomain (with beta-strands) second; also called SsoGINS51; Sso51
As to B1, the binding result was “binds”.
